Test results reported in article PMC4111604, “Structural Characterization of the Saccharomyces cerevisiae THO Complex by Small-Angle X-Ray Scattering” (PLoS ONE, 2014).

Target: the molecule itself
Experiment: SAXS; purified proteins or co-expressed, co-purified complexes in solution; 50 mM Tris-Cl pH 8.0, 100 mM KCl, 5 mM MgCl2, 5 mM 2-mercaptoethanol; 10°C or 25°C; 3-6 concentrations between 7.8 and 0.15 mg/ml; homodimers told from measurements at low concentrations

B1: Thp2p with C-terminal 6xHis tag (isolated protein) (natural protein, Saccharomyces cerevisiae, UniProt O13539 1-261, looked up)
chain: MTKEEGRTYFESLCEEEQSLQESQTHLLNILDILSVLADPRSSDDLLTESLKKLPDLHRELINSSIRLRYDKYQTREAQLLEDTKTGRDVAAGVQNPKSISEYYSTFEHLNRDTLRYINLLKRLSVDLAKQVEVSDPSVTVYEMDKWVPSEKLQGILEQYCAPDTDIRGVDAQIKNYLDQIKMARAKFGLENKYSLKERLSTLTKELNHWRKEWDDIEMLMFGDDAHSMKKMIQKIDSLKSEINAPSESYPVDKEGDIVLE
notes: Thp2p, Saccharomyces cerevisiae; pET-30 Ek/LIC vector; purified without TEV cleavage; also called isolated Thp2p; source: E. coli Rosetta (DE3), purified (Ni-NTA, Source 15Q, Superdex 200); not shown: 6xHis, C-terminal, kept
- stoichiometry N: 2

B2: Mft1pΔC336-392 with C-terminal 6xHis tag (isolated protein) (domain or fragment, Saccharomyces cerevisiae, UniProt P33441 1-335, looked up)
chain: MPLSQKQIDQVRTKVHYSEVDTPFNKYLDILGKVTKLTGSIINGTLSNDDSKIEKLTEQNISQLKESAHLRFLDLQSSIDTKKVADENWETCQQETLAKLENLKDKLPDIKSIHSKLLLRIGKLQGLYDSVQVINREVEGLSEGRTSLVVTRAEWEKELGTDLVKFLIEKNYLKLVDPGLKKDSSEERYRIYDDFSKGPKELESINASMKSDIENVRQEVSSYKEKWLRDAEIFGKITSIFKEELLKRDGLLNEAEGDNIDEDYESDEDEERKERFKRQRSMVEVNTIENVDEKEESDHEYDDQEDEENEEEDDMEVDVEDIKEDNEVDGESSQQ
notes: pET-30 Ek/LIC vector; purified without TEV cleavage; also called isolated Mft1p; source: E. coli Rosetta (DE3), purified (Ni-NTA, Source 15Q, Superdex 200); not shown: 6xHis, C-terminal, kept
- stoichiometry N: 2
